assay: yeast display, Sf9 membrane polyspecificity reagent, FACS + sequencing; frameworks hold sequencing errors
In short: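 A synthetic nanobody library was expressed on Saccharomyces cerevisiae BJ5465 by galactose induction for 36–48 hours. The library was stained for 1 hour at 4 °C with 10% biotinylated, detergent-solubilized Sf9 membrane reagent and enriched with streptavidin microbeads before FACS. Low and high (top ~1%) gates were set on anti-HA fluorescence for expression and streptavidin fluorescence for reagent binding, and each polyreactivity label reflects the gate of origin.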

Row | Sequence | polyreactivity (PSR sort gate)
1 | QVQLVESGGGLVQAGGSLRLSCAASGSIFSTNDRGWYRQAPGKERELVAAISVSGGSTYYADSVKGRFTISRDNAKNTVYLQMNSLKPEDTAVYYCNADYTRGTMYYWGQGTQVTVSS | low polyreactivity
2 | QVQLVESGRGIVQAGGSLRISWAASGITLAGYVMGLYRQAPGKESELVADISSSGDSTYYADSVKGRFTMSRDNAKNTVYLQMNSLKPEDTAVYYCAAKCGRTGSFDYWGQGTQVTVSS | low polyreactivity
3 | QVQLVESGGGLVQAGGSLRLSCAASGFIFKHYAMGWYRQAPGKERELVAAITSSGGNTYYADSVKGRFTISRDNAKNTVYLQMNSLKPEDTAVYYCNARFRTLYWGQGTQVTVSS | high polyreactivity
4 | QDQLVESGGGLVQAGGSLRLSCAASGPIFLVKTMGCYIQAPGKERELVADITWRGGDTYYADSVKGRFTISRDNAKNTDYLQMNSLKPEDTAVYYCAARGLGYGYERYRLGYWGQGTQVTVSS | high polyreactivity
5 | QVQLVESGGGLVQAGGSLRLSCAASGIIFKIYAMGWYRQAPGKERELVAAISKRGASTYYADSVKGRFTISRDNAKNTVYLQMNSLKPEDTAVYYCAAYRQGSAYDYWGQGTQVTVSS | high polyreactivity
6 | QVQLVESGGGLVQAGGSLRLSCAPSGFTFGLYAMGWYRQAPGKERELVAAISWSGGRTYYADSVKGRFTISRDNAKNTVYLQMNSLKPEDTAVYYCAAVNKARSEDYGYWGQGTQVTVSS | high polyreactivity
7 | QVQLVESGGGLVQAGGSLRLSCAASGSTFGLNAMGWYRQAPGKERELVAAISTSGGSTYYADSVKGRFTISRDNAKNTVYLQMNSLKPEDTAVYYCAAEVVAGYDYSQYYYWGQGTQVTVSS | low polyreactivity
8 | QVQLVESGGGLVQAGGSLRLSCAASGSILTENAMGWYRQAPGKERELVAAISRSGGRTYYADSVKGRFTISRDNAKNTVYLQMNSLKPEDTAVYYCAAEYWTVGYYYSLESDYWGQGTQVTVSS | low polyreactivity
9 | QVQLVESGGGLVQAGGSLRLSCAASGFIFDSYAMGWYRQAPGKERELVAAISYSAGSTSYADSVKGRFTISRDNAKNTVYLQMNSLKPEDTAVYYCNARYYPLYSNSYYSWGQGTQVTVSS | low polyreactivity
10 | QVQLVESGGGLVQAGGSLRLSFAASGSIFASNTMGWNSPEPGKERELVAAISSNGGSTYYADSVKGRFTISRDNAKNTFYLQMNSLKPEDTGVYYCNAELSTSELGGMYSWGQGTQVTVSS | low polyreactivity
11 | QVQHVESGGGLVQAGGSLRLSCAASGSTFTAYVMGWYRQAPGKERELVAAISRSGGRTYYADSVKGRFTISRDNAKNTVYLQMNSLKPEDTAVYYCAARSGPLAYDYWGQGTQVTVSS | high polyreactivity
12 | QGQLVETGGGLVQAGGILRLSCAASGSIFGDYDMGWYRQDPGKERDLVAAITSSGGMTYYADSVKGRFTISRDNAKNTVYFQMNSLKPVDTAVYYCAAYGYGSKYRYTGYYYWGQGTQVTVSS | low polyreactivity
13 | QVQLVESGGGLVQAGGSLRLSCAASGFIFEDYAMGWYRQAPGKERELVAAIRSNDDSTYYADSVKGRFTISRDNSKNTVYLHMNSLKPEDTAVYYCNKGLRRWSTRSHYYYWGQGTQVTVSS | high polyreactivity
14 | QVQLVESGGGLDQAGGSLRLSCAASGSTFPSYAMGWYRQAPGKERELVAAINSGGGTNYADSVKGRFTISRDNAKNTVYLQMNSLKPEDTAVYYCAKSRYDYTKTEGGYWGQGTQVTVSS | low polyreactivity
15 | QVQLVESGGGLVQAGGSLRLSCAASGFTFAVYAMGWSRQAAAKERELVAAISRSGTRTYYADSVKGRFTISRDNGKNTVYLQMNSLKPEDTAVYYFAAEVPDTDAYGYWGQGTQVTVSS | low polyreactivity
16 | QVQLVESGGGLVQAGGSLRLSCAASGRIFAYNTMGWSRQAPGKERELVAVITSGGSTNYADSVKGRFTISRDNAKNTVYLQMNSLKPEDTAVYYCAKRPYCRSGGSRYDYWGQGTQVTVSS | high polyreactivity
17 | QVQLVESGRALVQAGGSLRLSCAASGRICGIYSMGWNRQAPGKEREFVAAISDRSGSRTYYADSVKGRFTISRDNAKNTVYLQMNSLKPEDTAVYYCNARHQYQTLYPGGYYWGQGTQVTVSS | high polyreactivity
18 | QVQLVESGGGLVQAGGSLRLSCAASGSIFAYYAMGWYRQAPGKERELVAAISRSGVSTYYADSVKGRFTISRDNAKNTVYLQMNSLKPEDTAVYYCAARWRSGFTSGDYWGQGTQVTVSS | low polyreactivity
19 | QVQLVESAGCLVQAAASLRLSCSASGRTFYNYAMGWYRQAPGKEWELVASIRKNGGSTYYADSVKGRFTISRDNAKNTVYFQMNRLKPEDTAVYYCAAGRTVVTGSYYWGQGTQVTVSS | high polyreactivity
20 | QVQLVESGGGLVQAGGTLRLSCAASGRIFGPYAMGWYRQAPWKERELVAAISFSGSGTYYADSVKGRFTISRDNAKNTVYFQMNSLKAEDTAVYYCAATSRKIVAFDHDYWGQGTQVTVSS | low polyreactivity
21 | QVQIEESGGGLVQAGGSLRLSCAASGSTFGSYAMGWYRQAPGKEREFVAAISKRGGSTYYADSVKGRFTISRDNAKNTVYLQMNSLKPEDTAVYYCNRRQEYYSLHKTFNYWGQGTQVTVSS | high polyreactivity
22 | QVQLVESWGGLVQAGGSLRLSSPASGFTFFYYAMGWYRPAPGKERELVAAITSGGSTKNADSVKGRFTISRDNAKNSVYLQMNSLKPEDTAVYYCAARVRISGSPRILYNYWGQGTQVTVSS | high polyreactivity

Row | Sequence | polyreactivity (PSR sort gate)
23 | QDQLVESGGGLVQAGGSLRLSCAASGFIFDDNAMGGYRQAPGKERELVAAITSGGGSTYYADSVKGRFTISRDNAKYTVYLQMNSLKPEDTAVYYCNAVPSQHDEFDYWGQGTQVTVSS | low polyreactivity
24 | QVQLVESGGGLVQAGGSLRLSCAASGRIFYGYTMGWYRQAPGKERELVAAITQRGGNTHYADSVKGRFTISRDNAKNTVYLQMNSLKPEDTAVYYCAAKYYPYVRRVQYYYWGQGTQVTVSS | high polyreactivity
25 | QVQLVESGRGLVQAGGSLRLSCASSGSTFRWNAMGWYRQAPGKERELVAAISQSGSSTYYADSVKGRFTISRDNAKNTVYLQMNSLKPEDTAVYYCAARTGRKYYYWGQGTQVTVSS | low polyreactivity
26 | QVQLGESGGGLVQAGGSHRLICAATASTLGGYAMGWYRQAPGTERELVAAITRSGGSTYYADSVKGRFTISRDNAKNTVYLQMNSLKPEDTSVNYCGADRYSYFNIGYDYWGQGTQVTVSS | low polyreactivity
27 | QVQLVESVGGLVQAGGSLRLSCAASGITFLQYAMGWYIQAPGKERELVATINSGGSTNYADSVKGRFTISRDNAKNTVYLQMNSLKPEDTAVYYCAADYGSDYTKGDYWGQGTQVTVSS | low polyreactivity
28 | QVQLVESGGGLVQAGGSLRLTCAASGSTFWDNTMGWYRQAPGKDRELVAGITGGGNTKYADSVKGRFTISRDNAKNTVYLQMNSLKPEDTAVYYCAAERLRGYRGVRGYYGYYYWGQGTQVTVSS | high polyreactivity
29 | QVQLVESWGVLVQAGGSLRLSCAASGSIFTYYTMGWYRPEPGKERDFVARISSGGSTNYADSVKGRFTISRDNAMNTVYLQMNSLKPEDTAVYYCAAVSSYSPYRLTYYYWGQGTQVTVSS | high polyreactivity
30 | QVQLVESGGGLVQAGGSLRLSCAAWSIFYLNAMGWNRQAPGKERELDAAISSAGSTYYADSVKGRFTISRDNAKNTFYLQMNSLKPEDTAVYYCAAYWYDSPGVTEIWYDYWGQGTQVTVSS | low polyreactivity
31 | QVQLVESGGRLVQAGGSLRLSCAASGRTIYGNVMGWYRQAPGKERELVAVISWSSGSTSYADSVKGRFTISRDNAKNTVYLQMKSLKPEDTAVFYCAADSVTRPAGDYWGHGTQVTVSS | low polyreactivity
32 | QVQLVESGGGLVQAGGSLRLSCAASGSIIPYNAMGWYRQAPGKERYLVATISSGGSTNYADSVKGRFTISRDNAKNTVYLQMNSLKPEDTAVYYCAADVIVFYYAPNYWGDIEYGYWGQGTQVTVSS | low polyreactivity
33 | QVQLVESGGGLVHAGGSLRLSCAASGSIFYEYAMGWYRQAPGKERELVASINRGGGSTYYADSVKGRFTISRDNAKNTVYLQMNSLKPEDTAVYYCAAQWKYRQSYLDYYWGQGTQVNVSS | low polyreactivity
34 | QVQLVESGVGLVQAGGSLRLSCAASGRIFDGYDMGWYRQAPGKERELVAAITSVGSTNYADSVKGRFTISRDNAKNTVYLQMNSLKPEDTAVYYCAAVLYVFYDEYGYWEYFSQYDYWGQGTQVTVSS | low polyreactivity
35 | QVQLVESGGGLFQAGGSLRLSCAATGITFFRYPMGWYRQAPGKERELVAVITRGGTTYYADSVKGRFTISRDNAKNNAYLQINSLKPEDTAVSYCAAKPYYGYDYWGQGTQVTVSW | high polyreactivity
36 | QVQLVESGGGLVQAGGRLRLSCAASGSTFSYYAMGWYRQAPGKEREMVAAISRTGGSTYYADSVKGRCTISRDNAKNTVYLQMNSLKAEDTAFYYCNARAPVGTFDYDYWGQGTQVTVSS | low polyreactivity
37 | QVQLVESGGGLVQAGGSLRLSCAASGSIFQWNAMGWYRQAPGKERELVAAISTRGGRTYYADSVKGRFTISRDNAKNTDYLQMNSLKPEDTAVYYCAKQYGSYGRYYKYYYWGQGTQVTVSS | high polyreactivity
38 | QVQLVESGGGLVQAGGSLRLSCAASGSIFQGNVMGWSRQAPGKERELVAAISSGGRTYYADSVKGRFTISRDNAKNTVYLQMNSLKPEDTAVYYCAASWLTSYAYIMYYWGQGTQVTVSS | high polyreactivity
39 | QVQLVESGGGLVQAGGSLRLTCAASGSTFTAYAMGWYRQAPGKDLELVDAINWSGGTTYYADSVKGRFTISRDNAKNTVYLQMNSLKPEDTAVYYCPVDGNFFGEVRPYDYWGQGTQVTLSS | low polyreactivity
40 | QVQLVESGGGLVQAGGSLRLSCAASGRTLRYYAMGRYIQAPGKERELVAIITSTGSTYYADSVKGRFTISRDNAKNTVYLQMNSLKPEDTAVYYCNRVISVSLDYLGENYWGQGTQVTVSS | high polyreactivity
41 | QVQLVESGGGLFQSGGSLRLTSAASGSTFAYKAMGWYRQAPGKEREFVAAITIGSTYADSVKGRFTISRDNAKNTVYLQMNSLKPEDTAVYYCAVRRPRRNYNYPYDYWGQGTQVTVSS | low polyreactivity
42 | QVQLVESGGGLVQAGGSLRLTCAASGNTFNNNAMGWYRQAPGKERELVAAISGSGGSTYYADSVKGRFTISRDNAKNTVYLQMNSLKPEDTAVYYCAVRLVHGGKRYGYWGQGTQVTVSS | high polyreactivity
43 | QVQLVESGGGLFQAGGSLRLSCAASGFTFYRNAMGWYRQAPGQERELVAAITRGGSTTYADSVKGRFTISRDNAKNTVYLQMNSLKPEDTAVYYCAKGARADVPGYYKYYYWGQGTQVTVSS | high polyreactivity

Reference: the nanobody polyreactivity screen of Harvey et al. (2022)
